Biological target: MtrR-MBP (Neisseria gonorrhoeae) (UniProt P39897)
Assay: competition EMSA
Settings: 30 ul reaction buffer (composition not stated), room temperature; 6% native PAGE at 4 C; 2 ug MtrR-MBP or 1 ug GdhR-His

Chain of MtrR-MBP (Neisseria gonorrhoeae) (P39897 whole entry): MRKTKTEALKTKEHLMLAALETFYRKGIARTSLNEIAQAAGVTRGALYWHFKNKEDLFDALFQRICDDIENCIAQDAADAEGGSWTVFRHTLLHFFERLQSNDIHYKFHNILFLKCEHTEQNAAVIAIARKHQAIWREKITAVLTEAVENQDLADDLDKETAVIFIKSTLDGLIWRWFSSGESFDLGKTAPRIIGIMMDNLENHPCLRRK

Sequence	binding
TGCCGTTGACGGCGGGAACGGCGTGTCATTAGAATCCGCCCTGATTGGCCAGTCCAATTTGATGTTTGATGTATTTCGGAAGGGTTCTGCAGGGAATCTTTATAAAGGAGGAGTGATGAAAC (double strand) [R4/R2 (gdhR promoter and downstream)]	binds
CCGTTCCCGCCGTCAACGGCACTTACCTCGCACCGCCCCCGAAACACAGGAAAAAACTACACCAAACTACAATTTTTGTTCATGCAAATATTTGTTTTAACGGGATTTAAATGAAAGCTCCGATTCAAATCTGCCGAACCGCCCAAAAATATATTGACCTGAATATTAAAGTTTCGTAAAGTAATGCAACGTTGCTTTAATTGGTTTGACCACTATTGCCGACGATTAGAAAAATATTTTCGGAGATGTTCAATTATGGAAACTTGGGTTCAAAACTACACGGCAATCGGCG (double strand) [R3/R5 (upstream of gdhR promoter)]	no binding
